Common to all, as to assay type: binding
Details in all cases: Table IV cross-reactivity; phage clones

Test [1] has as its target T1, Hu DR5 IgG (SEQ ID NO: 109) (Homo sapiens, UniProt O14763).
T1 construct: Human DR5 IgG fusion polypeptide
Kind of test: Ic50 cross-reactivity ELISA, Hu DR5 IgG. As to the method:
(§1) 1. Coat microtiter plate wells with 80 ul of 1 ug/ml Apo-2L receptor DR5 ECD (SEQ ID NO: 105) (in 50 mM sodium carbonate pH 9.6) at 4° C. overnight.
(§2) 3. Prepare competing receptor solutions (100 ul/sample).
(§3) 6. Transfer 80 ul the mixture of competing receptor and phage from the non-sticky plate to DR5 ECD coated plate and incubate 20 minutes at room temperature.
(§4) In the Tables provided herein, “Ic 50” refers to the measure of the concentration of peptide needed to inhibit 50% of Apo-2L (e.g. amino acids 114 to 281 of SEQ ID NO: 1) binding to an Apo-2L receptor molecule (e.g. DR4-IgG (SEQ ID NO: 108) or DR5 ECD (SEQ ID NO: 105) etc.). The peptides are classified such that class 1-class 4 represent a, b, c, and d respectively.
(§5) Table VIII identifies the sequence identification numbers (SEQ ID NOs.) for the various peptides disclosed herein.

In test [2] the target is T2, Hu DR4 IgG (SEQ ID NO: 108) (Homo sapiens, UniProt O00220, H141R/R209T).
T2 construct: Human DR4 IgG fusion polypeptide
T2 sequence (O00220 with tags, fused parts or gaps H141R/R209T): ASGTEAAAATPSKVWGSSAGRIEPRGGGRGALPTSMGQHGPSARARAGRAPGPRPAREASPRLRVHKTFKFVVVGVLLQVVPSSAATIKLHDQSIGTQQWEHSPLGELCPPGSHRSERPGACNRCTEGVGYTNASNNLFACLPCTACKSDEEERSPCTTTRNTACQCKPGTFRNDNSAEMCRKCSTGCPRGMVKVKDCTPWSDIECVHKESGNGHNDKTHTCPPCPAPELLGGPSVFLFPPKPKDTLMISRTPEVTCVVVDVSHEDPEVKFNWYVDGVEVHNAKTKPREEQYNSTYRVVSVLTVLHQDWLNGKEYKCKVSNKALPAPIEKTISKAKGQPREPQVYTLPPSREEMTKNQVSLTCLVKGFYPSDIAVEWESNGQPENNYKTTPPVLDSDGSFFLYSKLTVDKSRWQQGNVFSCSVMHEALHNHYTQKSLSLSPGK
The test can be described thus: Ic50 cross-reactivity ELISA, Hu DR4 IgG. As to the method:
as §1, §2, §3, §4, §5

Test [3] concerns Cyno DR5 IgG (SEQ ID NO: 112). Kind of test: Ic50 cross-reactivity ELISA, Cyno DR5 IgG. On the procedure: as §1, §2, §3
Peptides of the invention and their Ic 50 values (e.g. determinations of Ic 50 in ELISA based assays using a DR5 ECD (SEQ ID NO: 105) competitor) are identified in Table III below. In the Tables provided herein, “Ic 50” refers to the measure of the concentration of peptide needed to inhibit 50% of Apo-2L (e.g. amino acids 114 to 281 of SEQ ID NO: 1) binding to an Apo-2L receptor molecule (e.g. DR4-IgG (SEQ ID NO: 108) or DR5 ECD (SEQ ID NO: 105) etc.). The peptides are classified such that class 1-class 4 represent a, b, c, and d respectively.
Table IV below provides certain properties of selected peptides, for example Ic50 cross-reactivity data with DR4 and DR5 polypeptides. Table VIII identifies the sequence identification numbers (SEQ ID NOs.) for the various peptides disclosed herein.
Using these methods, the Ic 50 values for various phage clones expressing peptide sequences of interest were generated and are provided in the Tables below. […]

Test [4] relates to Cyno DR4 IgG (SEQ ID NO: 111). Kind of test: Ic50 cross-reactivity ELISA, Cyno DR4 IgG. As to the method:
as §1, §2, §3, §4, §5

Test [5] has as its target T3, Hu TNFR IgG (SEQ ID NO: 110) (Homo sapiens, UniProt P19438).
T3 construct: Human TNFR1 IgG fusion polypeptide
The test can be described thus: Ic50 cross-reactivity ELISA, Hu TNFR IgG. As to the method: as §1, §2, §3, §4, §5

T3 sequence (P19438 with tags, fused parts or gaps): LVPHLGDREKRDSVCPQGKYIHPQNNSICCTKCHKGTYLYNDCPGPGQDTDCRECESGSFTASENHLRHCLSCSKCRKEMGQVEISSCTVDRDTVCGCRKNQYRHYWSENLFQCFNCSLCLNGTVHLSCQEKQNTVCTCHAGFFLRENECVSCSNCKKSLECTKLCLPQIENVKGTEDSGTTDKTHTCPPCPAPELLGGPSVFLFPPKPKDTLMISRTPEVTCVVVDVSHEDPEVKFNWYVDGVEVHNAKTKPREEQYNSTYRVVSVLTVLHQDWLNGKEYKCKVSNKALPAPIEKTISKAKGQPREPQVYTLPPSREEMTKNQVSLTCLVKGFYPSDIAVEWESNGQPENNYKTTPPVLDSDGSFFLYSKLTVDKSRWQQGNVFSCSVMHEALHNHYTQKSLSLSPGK
Cyno DR4 IgG (SEQ ID NO: 111), sequence (as listed by the source): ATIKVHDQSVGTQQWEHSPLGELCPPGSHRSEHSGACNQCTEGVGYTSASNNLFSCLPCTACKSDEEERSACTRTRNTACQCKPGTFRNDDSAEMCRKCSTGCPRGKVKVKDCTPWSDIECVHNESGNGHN
T1 sequence (O14763 with tags, fused parts or gaps): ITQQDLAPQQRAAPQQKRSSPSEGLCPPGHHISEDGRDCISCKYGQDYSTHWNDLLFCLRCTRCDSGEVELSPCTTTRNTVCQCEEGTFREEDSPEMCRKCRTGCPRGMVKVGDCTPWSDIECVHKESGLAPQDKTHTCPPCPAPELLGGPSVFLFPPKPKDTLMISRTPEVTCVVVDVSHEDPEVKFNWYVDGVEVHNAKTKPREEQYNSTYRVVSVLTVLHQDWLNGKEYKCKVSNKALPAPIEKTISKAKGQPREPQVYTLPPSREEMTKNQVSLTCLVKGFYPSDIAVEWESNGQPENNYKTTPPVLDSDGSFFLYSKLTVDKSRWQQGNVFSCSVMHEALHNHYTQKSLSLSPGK

Consider “Hd5-11: phage-derived DR5 binding peptide, class C1, SEQ ID NO: 15, first generation (G1) lead (QEVCMTSCDKLMKCNWMAAM)”, for which the half-maximal inhibitory concentration (IC50) in test [1] was found to be 8 nM; in test [2], 1000 nM; in test [3], 10000 nM; in test [4], 1000 nM; in test [5], 1000 nM.

These data come from patent US20070066800A1, “Apo2l(trail) receptor binding peptides and uses thereof” (priority 2003, published 2007).
